*1 amine or outer side, *2 acyl side, *3 side chain or, on linkers, in order; H or OH if unused. Where a SMILES comes first, the peptide text is derived from it. Bridges are numbered along the chain shown (N, C = ends). Roman numbers before positions name the chains, in order. [ ]: non-standard residue; d: D form. The star is where a group is joined. X2 = O=C(CCCCCN1C(=O)CC([*:2])C1=O)NCCOCCOCCOCCOCCOCCOCCOCCOCCC(=O)[*:1]; Hexanoyl(6-succinimido-3yl) = O=C1CC([*:1])C(=O)N1CCCCCC(=O)[*:2]; Dolaproine = CO[C@@H]([C@@H]1CCCN1)[C@@H](C)C(=O)O; Dil = CC[C@H](C)[C@H](NC)[C@@H](CC(=O)O)OC; PABC = O=C(OCc1ccc(N[*:1])cc1)[*:2]; X1 = C[C@@H](N*)[C@@H](O)c1ccccc1; Cit = NC(=O)NCCC[C@H](N)C(=O)O; NMeV = CN[C@H](C(=O)O)C(C)C; AEA = NCCOCC(=O)O
Assays:
tubulin = conditions: cited from earlier work
From the text: In the progression of cancers, a matrix metalloproteinase (MMP) remodeling of the extracellular tumor environment is essential for invasion and metastases. The fundamental role that MMPs play in tumor spread has made them a focus for developing new cancer therapies. While inhibitors to MMPs have been developed, pharmacologically blocking MMPs has not proven effective in patients. Alternative to enzymatic inhibition, tumor MMP activity can be therapeutically co-opted for targeting drug delivery. An example of this strategy involves cloaking cell-penetrating peptide–drug c ...

[1] = Tissue drug measurement (MMAE biodistribution) after IV cRGD-ACPP-MMAE; format: in vivo; conditions: mice with HCT116 xenografts, 10 nmoles IV
Procedure: To determine tissue specificity and the kinetics of ACPP targeting in human and murine tumor model systems, we used complementary approaches, measuring drug concentrations in harvested tissues and non-invasive fluorescence whole-animal imaging. First, the pharmacokinetics of cRGD-ACPP-MMAE drug accumulation were measured in tumor and normal tissues from mice with human HCT116 xenografts. Tumor-bearing mice were intravenously (IV) injected with cRGD-ACPP-MMAE (Figure 3A). Blood, tumor, and normal tissues (heart, kidney, liver, and muscle) were collected 2, 6, and 24 h after IV injection and assayed for MMAE by LC–MS/MS (Figure 3C). […] To determine the spatial specificity of ACPP drug delivery, normal muscle tissue adjacent to the tumor xenograft was harvested.
Mice with established subcutaneous HCT116 tumors were intravenously injected through the tail vein with 10 nmoles of cRGD-ACPP-MMAE. Tumors, blood, and normal tissues were harvested at indicated time points and homogenized in 10 volumes of PBS with a point sonicator (amplitude range 5–15%). Homogenates were centrifuged ([…], 10 min) with supernatants collected and diluted 2-fold by the addition of 2% acetic acid in acetonitrile, followed by centrifugation (14× g, 10 min). MMAE concentration was measured by using LC–MS/MS with a Luna-2 C18 column (Phenomenex, Torrance, CA, USA) and Agilent Trap XCT mass spectrophotometer (Agilent), with extracted ion currents at 686.4 and 506.4 integrated and combined to improve sensitivity. Ion currents were fitted to a standard curve to determine tissue drug concentrations.

[2] = Mouse body weights in the therapy studies (safety and tolerability); format: in vivo, mice; conditions: LL2 and B16 therapy studies, total 40 nmoles IV, weighed weekly
Procedure: To assess the safety and tolerability of systemically administered ACPP-MMAE conjugate, mice weights were measured weekly in the two therapy studies above.
(A) Mice bearing LL2 tumors IV injected with vehicle (untreated) or cRGD-ACPP-MMAE (20 nmoles on days 4 and 6). Individual tumor volumes plotted, left panel. Average tumors volumes on day 18 plotted as mean ± SEM, right panel (n = 10 for untreated, n = 6 for cRGD-ACPP-MMAE). Statistical significance calculated using two-tailed t testing. (B) Mice bearing B16 tumors IV injected with vehicle (untreated) or cRGD-ACPP-MMAE (20 nmoles on days 3 and 5). Individual tumor volumes plotted, left panel. Average tumors volumes on day 19 plotted as mean ± SEM, right panel (n = 10 for untreated, n = 6 for cRGD-ACPP-MMAE). Statistical significance calculated using two-tailed t testing. (C) Mouse body weights of mice from experiments in (A,B), plotted as mean fractional body weight ± SEM.
LL2 and B16 tumor cells were injected subcutaneously into the hindlimbs of 6-week-old female C57BL/6 albino mice in 100 µL of 1:1 Growth Factor Reduced Matrigel (BD) and PBS solution. […] Tumor volumes were measured and calculated using the formula as ½ × Length × Width^2. Body weights were measured weekly to assess general animal health.

CC[C@H](C)[C@@H]([C@@H](CC(=O)N1CCC[C@H]1[C@H](OC)[C@@H](C)C(=O)N[C@H](C)[C@@H](O)c1ccccc1)OC)N(C)C(=O)[C@@H](NC(=O)[C@@H](NC)C(C)C)C(C)C [MMAE, Monomethyl auristatin E] (H-[NMeV]V[Dil][Dolaproine]-X1)
potency for mitotic arrest and cell death (tubulin): single nanomolar range

CC[C@H](C)[C@@H]([C@@H](CC(=O)N1CCC[C@H]1[C@H](OC)[C@@H](C)C(=O)N[C@H](C)[C@@H](O)c1ccccc1)OC)N(C)C(=O)[C@@H](NC(=O)[C@H](C(C)C)N(C)C(=O)OCc1ccc(NC(=O)[C@H](CCCNC(N)=O)NC(=O)[C@@H](NC(=O)CCCCCN2C(=O)CC(SC[C@@H](NC(=O)[C@@H](CCCNC(=N)N)NC(=O)[C@@H](CCCNC(=N)N)NC(=O)[C@@H](CCCNC(=N)N)NC(=O)[C@@H](CCCNC(=N)N)NC(=O)[C@@H](CCCNC(=N)N)NC(=O)[C@@H](CCCNC(=N)N)NC(=O)[C@@H](CCCNC(=N)N)NC(=O)[C@@H](CCCNC(=N)N)NC(=O)[C@@H](CCCNC(=N)N)NC(=O)CNC(=O)[C@H](C)NC(=O)[C@H](CSC)NC(=O)CNC(=O)[C@H](CC(C)C)NC(=O)[C@@H]3CCCN3C(=O)COCCNC(=O)[C@@H](CCC(=O)O)NC(=O)[C@@H](CCC(=O)O)NC(=O)[C@@H](CCC(=O)O)NC(=O)[C@@H](CCC(=O)O)NC(=O)[C@@H](CCC(=O)O)NC(=O)[C@@H](CCC(=O)O)NC(=O)[C@@H](CCC(=O)O)NC(=O)[C@@H](CCC(=O)O)NC(=O)[C@@H](CCC(=O)O)NC(=O)CCOCCOCCOCCOCCOCCOCCOCCOCCNC(=O)CCCCCN3C(=O)CC(SC[C@@H]4NC(=O)[C@@H](Cc5ccccc5)NC(=O)[C@H](CC(=O)O)NC(=O)CNC(=O)[C@H](CCCNC(=N)N)NC4=O)C3=O)C(N)=O)C2=O)C(C)C)cc1)C(C)C (some centres unmarked) [cRGD-ACPP-MMAE, cyclo(RGD)fc-MC-HN-peg8-e9-oPLGC(Me)AG-r9-c-(MC-VC-PABC-MMAE)-CONH2] (I: [dE][dE][dE][dE][dE][dE][dE][dE][dE][AEA]PLGC(Me)AG[dR][dR][dR][dR][dR][dR][dR][dR][dR][dC]-NH2 / II: V[Cit][PABC][NMeV]V[Dil][Dolaproine]-X1 / III: cyclo(RGD[dF]C); linker I:26-II:N via Hexanoyl(6-succinimido-3yl); linker I:N-III:5 via X2)
tissue with highest MMAE level at 2 h ([1]; 2 h, LC-MS/MS): the kidneys had the highest levels of MMAE
tumor MMAE concentration versus peri-tumoral muscle by 6 h ([1]; 6 h, LC-MS/MS): higher than the surrounding normal muscle tissue
tumor MMAE versus normal tissues at 24 h post-injection ([1]; 24 h, LC-MS/MS, one-way ANOVA with Tukey): significantly higher than all normal tissues assayed
MMAE concentration in normal tissues after 6 h post-drug delivery ([1]; LC-MS/MS): rapid decrease
tumor MMAE concentration over 24 h post-injection ([1]; LC-MS/MS): remained relatively constant
time of peak MMAE concentration in all normal tissues (heart, kidney, liver, muscle) ([1]; tissues collected 2, 6, 24 h, MMAE by LC-MS/MS): 2 h
mouse body weights, control versus treated [2]: no significant difference

Reference: publication PMC11643828, “Tumor-Targeted Cell-Penetrating Peptides Reveal That Monomethyl Auristatin E Temporally Modulates the Tumor Immune Microenvironment” (Molecules, 2024)
